The results in this text go back to the Immune Epitope Database (IEDB).

For one test, the target named is HLA-A*01:01. The test can be described thus: IEDB peptide-MHC binding, purified MHC/direct/fluorescence; filed as Kd, often an IC50 or EC50 that approximates it; ≥ and ≤ were set here for values at or beyond the usual limits of such assays.
The target in a further test is HLA-A*02:11. The test is described as above.
A further test concerns the target HLA-A*03:01. The description is as above.
The target in the next test is HLA-A*11:01. The description is as above.
For test [1], the target named is HLA-A*24:02. The test is described as above. The following applies: source organism: Influenza A virus (A/duck/Mongolia/47/2001(H7N1)).
For a further test, the target named is HLA-B*07:02. Described as above.
Another test concerns the target HLA-B*08:01. Described as above.
Test [2] deals with HLA-B*15:01. Described as above.
The target in the next test is HLA-B*18:01. The description is as above.
Another test has as its target HLA-B*27:05. The description is as above.
In the next test the target is HLA-B*40:01. Described as above.
In the next test the target is HLA-B*44:02. The test is described as above.
The target of the next test is HLA-B*58:01. The test is described as above.
The target of a further test is HLA-C*12:03. The description is as above.
For test [3], the target named is HLA-B*46:01. The test can be described thus: IEDB peptide-MHC binding, purified MHC/competitive/fluorescence; filed as Kd, often an IC50 or EC50 that approximates it; ≥ and ≤ were set here for values at or beyond the usual limits of such assays. Conditions: source organism: Influenza A virus (A/swine/Italy/1521/98(H1N2)).
The target of another test is HLA-C*06:02. The test can be described thus: IEDB peptide-MHC binding, purified MHC/direct/fluorescence; filed as Kd, often an IC50 or EC50 that approximates it; ≥ and ≤ were set here for values at or beyond the usual limits of such assays.
Test [4] addresses HLA-B*15:01. The test can be described thus: IEDB peptide-MHC binding, purified MHC/competitive/fluorescence; filed as Kd, often an IC50 or EC50 that approximates it; ≥ and ≤ were set here for values at or beyond the usual limits of such assays. The following applies: source organism: Bacillus cereus G9241.
The next test has as its target HLA-B*35:01. The test is described as above. The following applies: source organism: Bacillus cereus G9241.
Test [5] addresses HLA-A*02:01. The test can be described thus: IEDB peptide-MHC binding, purified MHC/competitive/fluorescence; ≥ and ≤ were set here for values at or beyond the usual limits of such assays. Conditions: source organism: Zaire ebolavirus.
Test [6] deals with HLA-A*24:02. The description is as above. The following applies: source organism: Zaire ebolavirus.
Test [7] concerns the target HLA-A*02:01. The test can be described thus: IEDB peptide-MHC binding, purified MHC/direct/fluorescence; filed as Kd, often an IC50 or EC50 that approximates it; ≥ and ≤ were set here for values at or beyond the usual limits of such assays.
Test [8] has as its target HLA-A*02:12. The test is described as above.
The next test addresses HLA-A*24:03. The description is as above. Conditions: source organism: Zaire ebolavirus.
Another test addresses HLA-A*29:02. The description is as above. Conditions: source organism: Zaire ebolavirus.
In another test the target is HLA-A*31:01. The test is described as above.
Another test concerns the target HLA-A*68:02. The test is described as above.
For the next test, the target named is HLA-A*69:01. Described as above.
Test [9] has as its target HLA-B*39:01. The test is described as above. Conditions: source organism: Zaire ebolavirus.
Test [10] concerns the target HLA-B*46:01. The test is described as above.
The target in another test is HLA-B*57:01. The description is as above.
The target of another test is HLA-A*26:01. The test can be described thus: IEDB peptide-MHC binding, purified MHC/competitive/fluorescence; filed as Kd, often an IC50 or EC50 that approximates it; ≥ and ≤ were set here for values at or beyond the usual limits of such assays.
For a further test, the target named is HLA-B*15:17. The test is described as above.
The next test concerns the target HLA-B*27:03. The description is as above.
The target of a further test is HLA-B*51:01. Described as above.
The target of a further test is HLA-B*48:01. The test can be described thus: IEDB peptide-MHC binding, purified MHC/direct/fluorescence; filed as Kd, often an IC50 or EC50 that approximates it; ≥ and ≤ were set here for values at or beyond the usual limits of such assays. The following applies: source organism: Orthohantavirus hantanense.
For test [11], the target named is HLA-B*39:01. The test can be described thus: IEDB peptide-MHC binding, purified MHC/competitive/fluorescence; filed as Kd, often an IC50 or EC50 that approximates it; ≥ and ≤ were set here for values at or beyond the usual limits of such assays. The following applies: source organism: Hantaan virus 76-118.
Test [12] deals with HLA-A*02:01. The description is as above. The following applies: source organism: Vibrio cholerae.
Test [13] addresses HLA-A*02:12. The description is as above. Conditions: source organism: Vibrio cholerae.
Another test addresses HLA-A*02:19. The test is described as above. The following applies: source organism: Bacillus licheniformis.
Setting [14] is: source organism: Influenza A virus (A/duck/Mongolia/47/2001(H7N1)).
[15] abbreviates: source organism: Influenza A virus (A/Puerto Rico/8/34/Mount Sinai(H1N1)).
The mark [16] stands for this setting: source organism: Zaire ebolavirus.
The mark [17] stands for this setting: source organism: Orthohantavirus hantanense.
Where [18] appears, read: source organism: Limestone Canyon virus.
[19] abbreviates: source organism: Hantaan virus 76-118.
The mark [20] stands for this setting: source organism: Bacillus licheniformis.
[21] abbreviates: source organism: Mycobacterium tuberculosis variant bovis BCG str. Pasteur 1173P2.

pIC50, pKd: −log10 of the molar value.

For the sequence FLKDVMESM, the negative-log Kd (pKd) in the test with HLA-A*01:01 (setting [14]) is no more than 4.70; with HLA-A*02:11 (source organism: Influenza A virus H3N2), no less than 9.00; in the test with HLA-A*03:01 (setting [14]) it was no more than 4.70; with HLA-A*11:01 (setting [14]), no more than 4.70; in the test with HLA-A*24:02 [1], no more than 4.70; with HLA-B*07:02 (setting [15]), 6.51. For the same sequence, the pKd in the test with HLA-B*08:01 (setting [15]) is 6.80; with HLA-B*15:01 [2] (setting [15]) it was 6.66; in the test with HLA-B*18:01 (setting [14]), no more than 4.70; with HLA-B*27:05 (setting [14]) it was no more than 4.70; with HLA-B*40:01 (setting [14]) it was no more than 4.70; in the test with HLA-B*44:02 (setting [14]), no more than 4.70. Moreover, the pKd with HLA-B*58:01 (setting [14]) was no more than 4.70; in the test with HLA-C*12:03 (source organism: Influenza A virus (A/swine/Italy/1521/98(H1N2))) it was no less than 9.00; with HLA-B*46:01 [3], 7.62.
Consider FVHDSVQYF, for which the figures for the negative-log Kd (pKd) with HLA-C*06:02 (source organism: Bacillus cereus G9241), in the test with HLA-B*15:01 [4] and in the test with HLA-B*35:01 were 6.88, 7.54 and 9.05, respectively.
Regarding GHMMVIFRL, the pIC50 with HLA-A*02:01 [5] is 6.69; with HLA-A*24:02 [6], 6.72. Moreover, the negative logarithm of the Kd (pKd) in the test with HLA-A*01:01 (setting [16]), with HLA-A*02:01 [7] (setting [16]), with HLA-A*02:11 (setting [16]), with HLA-A*02:12 [8] (setting [16]), with HLA-A*03:01 (setting [16]) and with HLA-A*24:03 was no more than 4.70 in each case. Also, the pKd with HLA-A*29:02, in the test with HLA-A*31:01 (setting [16]), with HLA-A*68:02 (setting [16]), with HLA-A*69:01 (setting [16]), with HLA-B*07:02 (setting [16]) and with HLA-B*15:01 [2] (setting [16]) was no more than 4.70 in each case. Moreover, the pKd with HLA-B*18:01 (setting [16]) was no more than 4.70; in the test with HLA-B*27:05 (setting [16]), no more than 4.70; with HLA-B*39:01 [9] it was 7.06; with HLA-B*40:01 (setting [16]), no more than 4.70; in the test with HLA-B*44:02 (setting [16]), no more than 4.70; with HLA-B*46:01 [10] (setting [16]), no more than 4.70. The pKd with HLA-B*57:01 (setting [16]), in the test with HLA-B*58:01 (setting [16]), with HLA-A*26:01 (setting [16]), with HLA-B*15:17 (setting [16]), with HLA-B*27:03 (setting [16]) and with HLA-B*51:01 (setting [16]) was no more than 4.70 each time.
As to IRKPKHLYV, the pKd in the test with HLA-A*01:01 (setting [17]), in the test with HLA-A*02:01 [7] (setting [17]), in the test with HLA-A*02:11 (setting [18]), with HLA-A*02:12 [8] (setting [18]), with HLA-A*03:01 (setting [17]) and with HLA-A*11:01 (setting [17]) was no more than 4.70 in each case. Besides, the pKd was no more than 4.70 with HLA-A*31:01 (setting [17]); no more than 4.70 in the test with HLA-A*68:02 (setting [18]); no more than 4.70 with HLA-A*69:01 (setting [17]); no more than 4.70 with HLA-B*07:02 (setting [17]); 4.85 with HLA-B*08:01 (source organism: Hantavirus CRF367); no more than 4.70 with HLA-B*15:01 [2] (setting [17]). For the same sequence, the pKd in the test with HLA-B*18:01 (setting [17]), with HLA-B*27:05 (setting [17]), with HLA-B*40:01 (setting [17]), in the test with HLA-B*44:02 (setting [17]), with HLA-B*46:01 [10] (setting [17]) and with HLA-B*48:01 was no more than 4.70 throughout. The pKd in the test with HLA-B*57:01 (setting [17]) was no more than 4.70; with HLA-B*58:01 (setting [17]) it was no more than 4.70; with HLA-C*06:02 (setting [19]), 7.51; in the test with HLA-A*26:01 (setting [19]), no more than 4.70; with HLA-B*15:17 (setting [19]), no more than 4.70; in the test with HLA-B*27:03 (setting [19]), no more than 4.70. Besides, the negative logarithm of the Kd (pKd) with HLA-B*39:01 [11] and with HLA-B*51:01 (setting [19]) was no more than 4.70 in each case.
With NLNFDQAAL, the negative logarithm of the Kd (pKd) with HLA-A*02:01 [12] is 7.01; with HLA-A*02:12 [13], 7.08.
With RLIWSHHHI, the negative logarithm of the Kd (pKd) with HLA-A*02:01 [7] (setting [20]) is 5.92; with HLA-A*31:01 (setting [20]), 6.34; with HLA-A*69:01 (setting [20]), 5.90; in the test with HLA-B*07:02 (setting [20]) it was 4.92; with HLA-B*15:01 [2] (setting [20]), 6.53; with HLA-B*58:01 (setting [20]), 7.61. The negative-log Kd (pKd) with HLA-A*02:19 is 7.06.
YAKFARITL gave a negative logarithm of the Kd (pKd) with HLA-C*12:03 (setting [21]) of no less than 9.00.
Regarding YTWNGTQWV, in the test with HLA-C*06:02 (setting [21]), the pKd is 6.46.
